One data set has as its target LbCas12a (Lachnospiraceae bacterium? (only 'Lb' …, UniProt A0A5S8WF58 1-1228)). Kind of data set: SPR. A general note: SPR reads the build-up and loss of mass on a sensor chip optically.
In data set [1] the target is dCas12a (DNase-dead; LbCas12a implied) (Lachnospiraceae bacterium? (only 'Lb' …, UniProt A0A5S8WF58 1-1228, D832A). The data set is described as follows: EMSA. (Mobility shift assays separate free from complexed probe on a gel.)

Turning to UAAUUUCUACUAAGUGUAGAUAACCUGAUCAAGAUACCCAA (structured_RNA) [P1-CN crRNA], the binding result with LbCas12a is given as “binds”.

B1: P1-CN crRNA + P1 target dsDNA (mixed)
RNA: UAAUUUCUACUAAGUGUAGAUAACCUGAUCAAGAUACCCAA
DNA 1: CTTAGAGTTCTTTAAACCTGATCAAGATACCCAACCAAAC
DNA 2: TGTTGTTTGGTTGGGTATCTTGATCAGGTTTAAAGAACTCTAAG
Consider B1, for which the binding result in data set [1] is listed as “binds”.

As for GAAUGUCUACUCAGCGUAGAUAACCUGAUCAAGAUACCCAA (structured_RNA) [P1-FL2 crRNA], the binding result in the data set with LbCas12a is “binds”.

For the molecule CAAUGUCUACUCAGCGUAGAUAACCUGAUCAAGAUACCCAA (structured_RNA) [P1-FL1 crRNA], the binding result with LbCas12a is “binds”.

Take UAAUUUCUACAAAACGUAGAUAACCUGAUCAAGAUACCCAA (structured_RNA) [P1-L1 crRNA]: the binding result in the data set with LbCas12a is “binds”.

Turning to CAAUGUCUACUAAGUGUAGAUAACCUGAUCAAGAUACCCAA (structured_RNA) [P1-F1 crRNA], the binding result with LbCas12a is on record as “binds”.

In the case of UAAUUUCUACUCAGCGUAGAUAACCUGAUCAAGAUACCCAA (structured_RNA) [P1-L2 crRNA], in the data set with LbCas12a, the binding result is recorded as “binds”.

GAAUGUCUACUAAGUGUAGAUAACCUGAUCAAGAUACCCAA (structured_RNA) [P1-F2 crRNA]: the binding result in the data set with LbCas12a is reported as “binds”.

These data come from article PMC12508434.
